Results on 8 molecules are retold here after patent US20110046056A1, “APOA-1 PEPTIDE MIMETICS” (priority 2007, published 2011).

Usually EC50 stands for the concentration needed to bring the measured effect to its halfway point.

Data set [1] has as its system human red blood cells. In words: Red blood cell (RBC) lysis assay. In kind it is cell-based. The protocol:
The RBC lysis assay has been described previously (Kurtz, M. B. et al. (1994); Wang, J. et al., PNAS 104 (18), 7612-7616 (2007)). Basically, human erythrocytes are collected in a vacutainer tube with EDTA from human donors. Two ml of the freshly drawn whole blood is added to 6 ml of sterile saline and gently mixed then centrifuged at 5° C. for 5 minutes at 2000 rpm. The supernatant is discarded and the human red blood cells are resuspended with 6 ml of sterile saline and centrifuged again at 5° C. for 5 minutes at 2000 rpm. This procedure is repeated 2 times. A three percent suspension of the washed red blood cells is prepared by adding 0.3 ml of the washed red blood cells to 9.7 ml of sterile saline. The final concentration of test peptide ranging 160-2.5 (or 150-2.3) μM in 100 μl sterile saline containing 3.2% Me2SO is prepared in 96-well MICROTEST U-bottom plates (BECTON DICKINSON, BD-353227). The RBC lysis is initiated by addition of 5 μl of 3% washed human red blood cell suspension to the each well in the plates. The plates are incubated overnight at room temperature, then centrifuged at 2000 rpm for 5 minutes and read immediately. Hemolysis of red blood cells is indicated by complete or partial clearing (lysis) of the supernatants with either no or a rough RBC pellet in the bottom of the wells. […]

In data set [2] the target is T1, ABCA1 cholesterol transporter protein (Mus musculus, UniProt P41233).
T1 construct: endogenous in cells
T1 sequence (P41233 whole entry): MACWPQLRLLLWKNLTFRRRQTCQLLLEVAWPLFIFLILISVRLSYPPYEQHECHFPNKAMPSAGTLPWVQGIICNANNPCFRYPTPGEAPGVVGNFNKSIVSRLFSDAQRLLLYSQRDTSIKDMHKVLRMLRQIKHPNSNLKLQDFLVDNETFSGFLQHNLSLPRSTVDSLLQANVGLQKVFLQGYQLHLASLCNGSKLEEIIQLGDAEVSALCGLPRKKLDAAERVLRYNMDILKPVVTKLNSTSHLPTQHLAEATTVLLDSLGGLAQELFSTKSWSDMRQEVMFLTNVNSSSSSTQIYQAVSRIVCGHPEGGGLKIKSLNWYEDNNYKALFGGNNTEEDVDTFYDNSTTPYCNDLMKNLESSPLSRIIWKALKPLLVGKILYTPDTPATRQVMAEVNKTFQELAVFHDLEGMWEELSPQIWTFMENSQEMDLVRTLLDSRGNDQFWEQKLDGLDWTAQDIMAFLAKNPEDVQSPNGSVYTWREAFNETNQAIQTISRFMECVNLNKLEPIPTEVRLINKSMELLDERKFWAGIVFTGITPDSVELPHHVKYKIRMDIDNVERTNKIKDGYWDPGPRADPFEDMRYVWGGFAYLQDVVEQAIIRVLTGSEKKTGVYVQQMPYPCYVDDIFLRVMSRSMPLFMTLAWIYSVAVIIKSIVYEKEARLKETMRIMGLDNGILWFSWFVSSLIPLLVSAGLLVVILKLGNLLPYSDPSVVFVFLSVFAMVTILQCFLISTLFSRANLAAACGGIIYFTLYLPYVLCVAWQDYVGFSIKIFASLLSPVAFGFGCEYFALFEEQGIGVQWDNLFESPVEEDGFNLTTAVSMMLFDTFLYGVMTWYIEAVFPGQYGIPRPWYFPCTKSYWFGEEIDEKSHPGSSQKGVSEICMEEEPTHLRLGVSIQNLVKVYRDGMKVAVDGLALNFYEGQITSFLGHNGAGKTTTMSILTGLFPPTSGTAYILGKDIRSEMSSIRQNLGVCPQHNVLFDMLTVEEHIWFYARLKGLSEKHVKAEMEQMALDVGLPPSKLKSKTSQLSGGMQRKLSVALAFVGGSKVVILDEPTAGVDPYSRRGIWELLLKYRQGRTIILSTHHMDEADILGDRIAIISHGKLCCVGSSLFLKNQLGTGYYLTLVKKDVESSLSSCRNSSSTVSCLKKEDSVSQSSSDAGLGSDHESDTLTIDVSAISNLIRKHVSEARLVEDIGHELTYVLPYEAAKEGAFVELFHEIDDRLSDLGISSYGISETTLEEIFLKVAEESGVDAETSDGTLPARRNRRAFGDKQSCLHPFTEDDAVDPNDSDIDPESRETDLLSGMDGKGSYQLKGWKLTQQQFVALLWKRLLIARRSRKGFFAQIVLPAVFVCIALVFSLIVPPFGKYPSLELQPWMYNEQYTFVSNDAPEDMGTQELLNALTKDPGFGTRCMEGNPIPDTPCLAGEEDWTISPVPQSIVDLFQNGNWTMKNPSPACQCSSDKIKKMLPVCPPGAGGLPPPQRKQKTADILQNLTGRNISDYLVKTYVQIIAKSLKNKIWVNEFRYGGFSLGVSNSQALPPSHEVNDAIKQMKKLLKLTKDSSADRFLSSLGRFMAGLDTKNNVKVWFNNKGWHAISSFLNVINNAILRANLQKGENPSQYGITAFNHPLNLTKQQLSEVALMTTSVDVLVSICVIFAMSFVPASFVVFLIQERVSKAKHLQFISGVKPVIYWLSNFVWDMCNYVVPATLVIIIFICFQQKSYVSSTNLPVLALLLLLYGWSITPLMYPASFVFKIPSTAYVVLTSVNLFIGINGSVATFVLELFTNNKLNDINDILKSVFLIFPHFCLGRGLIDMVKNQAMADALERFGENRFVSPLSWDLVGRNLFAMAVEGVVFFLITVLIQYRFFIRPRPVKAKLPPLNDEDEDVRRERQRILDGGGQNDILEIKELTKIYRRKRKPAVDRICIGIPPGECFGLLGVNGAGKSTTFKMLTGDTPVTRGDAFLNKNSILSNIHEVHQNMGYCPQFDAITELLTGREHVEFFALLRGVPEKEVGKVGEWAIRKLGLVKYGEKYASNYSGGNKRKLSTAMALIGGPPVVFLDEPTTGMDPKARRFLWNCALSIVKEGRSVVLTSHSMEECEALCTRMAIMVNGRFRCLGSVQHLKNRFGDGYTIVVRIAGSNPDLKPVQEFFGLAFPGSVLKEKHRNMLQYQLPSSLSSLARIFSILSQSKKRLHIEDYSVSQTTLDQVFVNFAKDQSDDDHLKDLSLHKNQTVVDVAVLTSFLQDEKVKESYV
Description: ABCA1-dependent cholesterol efflux from RAW mouse macrophage cells (in vitro RCT assay). In kind it is cell-based. The procedure, abridged: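 RAW macrophages labelled with ^3H-cholesterol (5 μCi/ml) 24 h, equilibrated overnight serum-free, then given eight-point peptide titrations 24 h with or without 150 μM CPT-cAMP. Percent efflux = medium counts/(medium + lysate); plain-medium efflux subtracted from cAMP value gives ABCA1-dependent efflux, fitted for EC50.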

Data set [3] concerns atheroma in ApoE-deficient mice. In words: Atheroma volume in ApoE-deficient mice by magnetic resonance imaging. In kind it is in vivo, mouse. Particulars: 20 mg per kg subcutaneously once daily; after 5 weeks of treatment; compared to vehicle-treated apoE-deficient mice; MRI. The text has this:
The ultimate goal of developing these mimetic peptides was for the acute and chronic treatment of atherosclerotic lesions in human patients.

Data set [4] in a line: Lipid (liposome) solubilization, turbidimetric method. In kind it is biochemical. The protocol: As noted above, the other important parameter was phospholipid solubilization. A turbidimetric method is used to determine the solubilization capacity of peptides of the present invention. First, a three-fold serial titration of the peptide is prepared in a polypropylene v-shaped 96-well plate. The eight-point titration is done in phosphate-buffered saline (PBS, pH 7.5) or DMSO from a starting concentration that allows for addition to an optically-clear bottomed assay plate in <100 μl aliquots to yield a starting concentration of 500 μM in 200 μl final well volume. PBS is then added to each well to bring the total volume to 100 μl. Any bubbles in the wells must be dispersed to avoid erroneous results. Next, from a turbid but homogeneous emulsion of dimyristoyl phosphatidylcholine at 0.5 mg/ml in PBS, 100 μl is added to each well in the assay plate, the plate is inserted into the NEPHELOSTAR (BMG LABTECH INSTRUMENTS), and readings are taken immediately and every 15 minutes over 2 hours.
A true 0-point value is calculated by averaging the readings of the wells with phospholipid but no peptide. For each peptide concentration, a percent decrease in turbidity is calculated by subtracting the 0-point value from the corresponding 30 and 120 minute readings and dividing by that 0-point value. Finally the EC50 values for both time points are determined using PRISM software (Table 2).

The target of data set [5] is T2, ATP-binding cassette transporter A1 (ABCA1) (mouse, UniProt P41233 1-2261). In words: cell-based or functional assay.
T2 sequence (P41233 whole entry): as above
Data set [6] has as its target T2, ATP-binding cassette transporter A1 …. Description: cell-based or functional assay. This is another data set of the same source.

Where a SMILES comes first, the peptide text is derived from it. Where no end group is shown, it is not given here. [ ]: non-standard residue; d: D form. Ala(5-hexenyl) = C=CCCCCC[C@H](N)C(=O)O; dNle(6-vinyl) = C=CCCCC[C@@H](N)C(=O)O; R5 = C=CCCC[C@@](C)(N)C(=O)O; 12H3 = not defined here

On to `O=C(N[C@H](CO)[C@H](O)c1ccc([N+](=O)[O-])cc1)C(Cl)Cl` [Chloramphenicol], for which the “minimum lytic concentration (MLC)” value in data set [1] was above 64 µg/mL.

On to `C=CCCCCC[C@H](NC(=O)[C@H](CCC(=O)O)NC(=O)[C@H](CC(N)=O)NC(=O)[C@H](CC(C)C)NC(=O)[C@H](CCCCN)NC(=O)[C@H](CCC(=O)O)NC(=O)[C@H](CCCNC(=N)N)NC(=O)[C@H](CCCCCC=C)NC(=O)[C@H](CCC(=O)O)NC(=O)[C@H](CC(=O)O)NC(=O)[C@H](CC(C)C)NC(=O)[C@@H](NC(=O)[C@@H]1CCCN1C(C)=O)C(C)C)C(=O)N[C@@H](CC(C)C)C(=O)N[C@@H](CCC(=O)O)C(=O)N[C@@H](C)C(=O)N[C@@H](CC(C)C)C(=O)N[C@@H](CCCCN)C(=O)N[C@@H](CCC(N)=O)C(=O)N[C@@H](CCCCN)C(=O)N[C@@H](CC(C)C)C(=O)N[C@@H](CCCCN)C(N)=O` [SEQ ID NO 43, PVLDES7HREKLNES7HLEALKQKLK] (Ac-PVLDE[Ala(5-hexenyl)]REKLNE[Ala(5-hexenyl)]LEALKQKLK-NH2; C-terminus assumed), for which the EC50 in data set [2] (read-out: EC50 in the cholesterol efflux assay (RCT in vitro assay)) was found to be 300 nM. Further, in data set [3], the atheroma volume result is “significant reduction”. For the molecule PVLDEFREKLNEELEALKQKLK [compound 1], the “ABCA1-DEPENDENT CHOLESTEROL EFFLUX EC50” value in data set [2] (RAW cells, cAMP-stimulated minus plain medium efflux) is on record as “NOT ACTIVE”. Besides, the “LIPID SOLUBILIZATION IC50” value in data set [4] (Measured at 2 h) is given as “NOT ACTIVE”. Turning to “PVLDEFRER5MELNER5MELEALKQKLK (Ac-PVLDEFRE[R5]LNE[R5]LEALKQKLK; not fully specified (C-terminus); bridges not given here) [SEQ ID NO 16]”, the “activity in the cholesterol efflux / in vitro RCT assay, in words” value in data set [2] was “very low to no activity”. For the same molecule, the “lipid binding / ability to clear liposome turbidity, in words” value in data set [4] is “good lipid binding”.

In the case of “PVLDEFRES5HLNES5HLEALKQKLK (Ac-PVLDEFRE[S5H]LNE[S5H]LEALKQKLK; not fully specified (C-terminus)) [SEQ ID NO 15]”, the “activity in the cholesterol efflux / in vitro RCT assay, in words” value in data set [2] is listed as “very low to no activity”. Further, the “lipid binding / ability to clear liposome turbidity, in words” value in data set [4] was “good lipid binding”.

B1: CONS[S7H^13] (peptide)
peptide: Ac-PVLDEFREKLNE[Ala(5-hexenyl)]LEALKQKLK
In the case of B1, in data set [5], the “EC50 in the RCT in vitro assay” value was 1600 nM and the “EC50 in the cholesterol efflux assay” value was found to be 2800 nM. The “ABCA1-dependent cholesterol efflux EC50” value in data set [6] amounted to 2000 nM.

B2: S7H [F6-E13]R6H OPEN (peptide)
peptide: Ac-PVLDE[Ala(5-hexenyl)]REKLNE[dNle(6-vinyl)]LEALKQKLK
Turning to B2, in data set [5], the “EC50 in the cholesterol efflux assay” value worked out at 1200 nM. For the same molecule, the “ABCA1-dependent cholesterol efflux EC50” value in data set [6] turned out to be 1300 nM.

B3: CONS[(RS)12H3^13] (peptide)
peptide: Ac-PVLDEFREKLNE[12H3]LEALKQKLK
modifications: not fully specified (C-terminus); printed as PVLDEFREKLNE-(RS)12H3-LEALKQKLK; reading uncertain
As to B3, the “EC50 in the RCT in vitro assay” value in data set [5] was in the range of 200 to 400 nM.
